Numbering of substitutions follows the chain as printed.
B1: BD-614 (antibody, V domains shown)
VH: QVQLVESGGGLVQPGGSLRLSCAASGLIVSSNYMSWVRQAPGEGLEWVSVIYSGGSTYYADSVKGRFTISRDTSKNTLYLQMNSLRAEDTAVYYCARARIYTYGPDYWGQGTLVTVSS
VL: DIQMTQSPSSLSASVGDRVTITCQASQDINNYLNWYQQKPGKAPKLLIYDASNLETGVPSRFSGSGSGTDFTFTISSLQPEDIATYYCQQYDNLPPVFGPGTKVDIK
B2: COVOX-222 (antibody, V domains shown)
VH: EVQLVESGGGLIQPGGSLRLSCAASGLTVSSNYMSWVRQAPGKGLEWVSVIYSGGSTFYADSVKGRFTISRDNSKNTLYLQMNSLGAEDTAVYYCARGEGSPGNWFDPWGQGTLVTVSS
VL: DVVMTQSPGTLSLSPGERATLSCRASQSVPSSYLAWYQQKPGQAPRLLIYGASTRATGIPDRFSGSGSGTDFTLTISRLEPEDFAVYYCQHYDTSPRFGGGTKVDIK
B3: BD-618 (antibody, V domains shown)
VH: EVQLVESGGGLVQPGGSLRLSCAVSGFIVSRNYMTWVRQAPGKGLEWVSLIYSGGSTFYTNSVKGRFTISRDNSKNTLYLQMDSLRAEDTAVYYCARGPYPRFDYWGQGTLVTVSS
VL: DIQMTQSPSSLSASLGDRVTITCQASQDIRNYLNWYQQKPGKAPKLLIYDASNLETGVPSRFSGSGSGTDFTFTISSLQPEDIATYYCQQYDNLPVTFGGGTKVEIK
B4: BD55-5293 (antibody, V domains shown)
VH: EVQLVQSGAEVKKPGESLKISCKTSGYSFISNWIGWVRQMPGKGLEWMGIIYPGDSDTRYSPSFQGQVTISVDKSISTAYLQWTSLKASDTAMYFCTRRGDYGEFGGFDGDWGQGTLVTVTS
VL: DIQMTQSSSSLSASVGDRVTITCRASQSTGRYLNWYQQKAGKAPKLVIYAVSSLQSGVPSRFSGSGSGTEFTLTINSLQPEDFATYYCQQTYSIPFTFGPGTKVDLK
B5: BD-369 (antibody, V domains shown)
VH: EVQLVESGGGLVQPGGSLRLSCAASGITVSSNYMTWVRQAPGKGLEWVSLIYSGGSTYYADSVKGRFTISRDNSKNTLHLQMNSLRGEDTAVYYCARDLVAFGMDVWGQGTTVTVSS
VL: AIQLTQSPSSLSASVGDRVTITCRASQGISSYLAWYQQKPGKAPKLLIYAASTLQGGVPSRFSGSGSGTDFTLTISSLQSEDSATYYCQQLNSDTPTFGPGTKVEIK
B6: BG4-25 (antibody, V domains shown)
VH: EVQLVESGGGLIQPGGSLRLSCAASGITVVRNYMTWVRQAPGKGLEWVSVIYSGGTTYYADSVKGRFTISRDNSKNTMYLQMNSLRAEDTAIYYCARDLEVVGAMDVWGQGTTVTVSS
VL: EIVLTQSPGTLSLSPGERATLSCRASQSVPSSYLAWYQQKPGQAPRLLIYGASSRATGIPDRFSGSGSGTDFTLTISRLEPEDFAVYYCQQYGSPMYTFGQGTKLEIK
B7: COV2-2072 (antibody, V domains shown)
VH: QMQLVQSGPEVKKPGTSVKVSCKTSGFTFTSSAIQWVRQARGQRLEWIGWIVVGSGNTNYAQKFQERVTITRDMSTSTAYMELSSLRSEDTAVYYCAAPHCNRTSCYDAFDLWGQGTMVTVSS
VL: not shown
B8: BD-836 (antibody, V domains shown)
VH: QVQLVQSGPEVKKPGTSVRVSCKASGFTFSTSAVQWVRQARGQRLEWIGWIAVGSGKTDYLQKFQERVTMTRDESTNTAYMQLSSLRSEDTAVYYCAAPHCSGGTCYDGFDIWGQGTLVTVSS
VL: EIVLTQSPGTLSLSPGERATLSCRASQSVRSGYFAWYQQRPGRAPRLLIYGASSRATAIPDRFSGSGSGTDFTLTINRLEPEDFAVYYCQQYGTSPWTFGQGTKVEIK
B9: COV2-2381 (antibody, V domains shown)
VH: B7 VH with T24A, I34V, V52A, T69S, H100Y, N102S, Y107H, L112I, M118K
VL: EVVLTQSPGTLSLSPGERATLSCRASQSVSSSYLAWYQQKPGQAPRLLIYGASSRATGIPDRFSGSGSGTDFTLTISRLEPEDFAVYHCQHFGSSSQWTFGQGTKVEIK
B10: S2E12 (antibody, V domains shown)
VH: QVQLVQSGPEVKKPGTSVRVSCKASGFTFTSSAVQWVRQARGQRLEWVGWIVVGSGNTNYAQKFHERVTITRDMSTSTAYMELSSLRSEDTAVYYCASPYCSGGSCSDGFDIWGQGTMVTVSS
VL: DIVLTQTPGTLSLSPGERATLSCRASQSVSSSYLAWYQQKPGQAPRLLIYGASSRATGIPDRFSGSGSGTDFTLTISRLEPEDFAVYYCQQYVGLTGWTFGQGTKVEIK
B11: BD-566 (antibody, V domains shown)
VH: QVQLVESGGGVVQPGRSLRLSCAASGFTFRSYGMHWVRQAPGKGLEWVAVISKDGSNKYYADSVKGRFTISRDNSKNTLYLQWNSLRAEDTAVYYCARALVVPGAPRYYYYGMDVWGQGTTVTVSS
VL: AIQLTQSPSSLSASVGDRVTITCRASQGISSALAWYQQRPGKAPKLLIYDASTLESGVPSRFSGSGSGTDFTLTISSLQPEDFATYYCQQFNTYPWTFGQGTKVELK
B12: BD55-1962 (antibody, V domains shown)
VH: QVQLVQSGAEVKKPGSSVKVSCTASGDSFSSYAITWVRQAPGQGLEWMGRIIPILGIANYAQKFQGRVTLTADKSAGTAYMELSSLRSDDTAVYYCASGYDFHFDYWGQGTLVTVYS
VL: QSALTQPASVSGSPGQSITISCTGTSSDVGDYKYVSWYQQHAGKAPKLMIHDVSKRPSGVSSRFSGSKSGNTASLTISGLQAEDEADYYCSSYTSSSSWVFGGGTKLTVL
B13: BD-812 (antibody, V domains shown)
VH: EVQLVQSGAEVKKPGESLKISCQFSEYKLISFWIAWVRQRPGKGLEWMGIIYPDDSDTKYSPSSQGQVTISADKSIRTAYLQWSSLMASDTAMYYCTSGSYYGTLDFWGQGTLVTVSS
VL: DIEITQSPSSLSASVGDRVTISCRASQDIRTYVAWYQQRPGKVPRLLIYAASTLQSGVPSRFSGRGSGTDFTLTISSLQPEDVATYYCQQYNSAPLTFGGGAKVEIK
B14: BD-804 (antibody, V domains shown)
VH: EVQLVESGGGLVKPGGSLRLSCAASGFTFSNYDMNWVRQAPGKGLEWVSSISSSSTYTHYADSVKGRFTISRDNAKNSLYLQMNSLRAEDTAVYYCARDRAYRLGELSSLWGDDAFDIWGQGTMVTVSS
VL: AVWMTQSPSLLSASTGDRVTVSCRMSQDISSYLAWYQQKPGKAPELLIYAAFTLQSGVPSRFSGSGSGTEFTLTISSLQSEDFATYYCQQYYSFPHTFGQGTKLERR
B15: LY-CoV1404 (antibody, V domains shown)
VH: QITLKESGPTLVKPTQTLTLTCTFSGFSLSISGVGVGWLRQPPGKALEWLALIYWDDDKRYSPSLKSRLTISKDTSKNQVVLKMTNIDPVDTATYYCAHHSISTIFDHWGQGTLVTVSS
VL: QSALTQPASVSGSPGQSITISCTATSSDVGDYNYVSWYQQHPGKAPKLMIFEVSDRPSGISNRFSGSKSGNTASLTISGLQAEDEADYYCSSYTTSSAVFGGGTKLTVL
B16: BD55-1706 (antibody, V domains shown)
VH: QVQLQESGPGLLKPSETLSLTCTVSGGSINSYYWNWIRQSPRKGLEWIGYIFFSGSTNYNPSLKSRVTISLDRSKNQFSVHLRSVTAADTAVYYCARGDSKTGYDLELFDYWGHGTLVTVSS
VL: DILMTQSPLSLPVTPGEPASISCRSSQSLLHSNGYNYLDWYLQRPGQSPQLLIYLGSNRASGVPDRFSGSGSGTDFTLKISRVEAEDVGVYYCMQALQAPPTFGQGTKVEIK
B17: BD55-387 (antibody, V domains shown)
VH: QITLKESGPTLVKPTQTLTLTCTFSGFSLSTSGVGVGWIRQPPGKALEWLALIYWDDDKRYSPALKSRLTITEDTSKNQVVLTMTNMDPVDTATYYCAHCAPAWNYFDYWGQGTLVAVSS
VL: QSVLTQPPSVSGAPGQRVTISCTGSSSNIGAGYDVHWYQQLPGTAPKLLIYRNSNRPSGVPGRFSGSKSGTSASLAITGLQAEDEADYFCQSYDSSLSGWVFGGGTKLTVL
B18: BD55-1104 (antibody, V domains shown)
VH: EVQLVQSGAEVKKPGESLKISCKGSGYSFTTYWTGWVRQVPGKGLEWMGLIYPRDSDARYTPSFEGHVTISADNSINTAYLHWSSLKASDTAIYYCVSAGDTGWRGHADYWGQGTLVTVSS
VL: DIQMTQSPSSLSASVGDRVTITCRASLDIRNYLVWFQQKPGTAPKSLIYEASTLQSGVPSRFSGSGSGTDFTLTISSLRPEDFATYYCQQYNTWPFTFGGGTKVEIK
B19: BD55-3637 (antibody, V domains shown)
VH: QVQLVESGGGVVQPGRSLRLSCAASGFTFSTYGMHWVRQAPGKGLQWVAFISDGGNKKYFADSVKGRFTISRDNSKNTLYLQMSSLRTEDTAVYYCAKERYCAGGDCSNPFFDYWGQGTLVTVSS
VL: DIQVTQSPSSLSASVGDRVTITCRASQSISSSLNWYQHKPGNAPKLLIYAASSLQSGVPSRFSGSGSGTDFILTISSLQPEDFATYYCQQSHSFPRTFGQGTKVEFR
B20: BD55-3152 (antibody, V domains shown)
VH: QVQLVQSGAEVKKPGASVIVSCKASGYRFISHYIHWVRQAPGQGLEWMGKIDPSGRGTTYAQKLQGRVSVTRDTSTSSVYMALSGLRSDDTAVYYCARDRFPLSDPYVWGSPLGGLDVWGQGTTVIVSS
VL: SYDLTQPPSVSVSPGQTARITCSGDALPSQYVYWYQQRPGQAPVLVMYKDSERPPGIPERFSGSTSGTTATLTITGVQAEDEADYYCQSADASTTYHVFGGGTKVTVV
B21: BD-744 (antibody, V domains shown)
VH: EVQLVESGGGLVQPGRSLRLSCAASGFTFDDYAMHWVRQAPGKGLEWVSGASWNSGTIGYADSVKGRFIIIRDNAKNSLYLQMNSLRSEDTASYYCAKDFSRDGDAFDIWGQGTMVTVSS
VL: SYVLPQPPSVSVAPGKTARITCGGNNIEHKSVHWYQQKPRQAPVVVMYYDSDRPSGIPERFSGSNSGNTATLIISRVEAGDEAEYYCQVWDRSSDQPVFGGGTKLTVL
B22: BD55-5386 (antibody, V domains shown)
VH: QVQLLQSGAEVKKPGSSVTVSCKASGGTFTNSAINWVRQAPGQGLEWIGGIIPIIGPTSYAQKFQGRVTITADESSTTAYLDLRSLRSDDTAVYYCAKAHCGDCTPPRGYYFYYFGMDVWGQGTTVTVSS
VL: SYELTQPPSVSVSPGQTARITCSGDALPKQYSYWYQQRPGQAPVLLIYKDNERPSGIPERFSGSSSGTTVTLTISGVQAEDEADYYCQSADASSTYVVFGGGTKLTVL
B23: BD-932 (antibody, V domains shown)
VH: EVQLVESGGALVHPGRSLRLSCTASGFTFEDYAMHWVRQAPGKGLEWVSGVSWNSGTIGYADSVKGRFIISRDNAKNSLYLQMLSLRVEDTAFYYCAKHGGLLDTSLDQYYFDYWGQGTLVTVSS
VL: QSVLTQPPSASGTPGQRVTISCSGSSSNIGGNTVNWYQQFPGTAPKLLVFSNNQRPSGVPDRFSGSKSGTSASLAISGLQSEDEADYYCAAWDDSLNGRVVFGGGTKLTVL
B24: BD-914 (antibody, V domains shown)
VH: QVQLVQSGAEVTKPGSSVKVSCKTSGDTFSLYPISWVRQAPGQGLEWMGRIIPIVGIADYAQKFQGRVTITADKSTSTAYMELSSLRSEDTAIYYCARDGNQYYYDSGGDYYVNYWGQGTLITVSS
VL: DIQMTQSPSSLSASVGDRVTITCQASQDIRKDLNWYRQRPGKAPKLLIYDASNLETGVPSRFSGSGSGTHFTFTISGLQPEDVATYYCQQYDNVPVTFGPGTKVDIR

Target: SARS-CoV-2 Omicron (B.1.1.529) RBD (SARS-CoV-2 Omicron B.1.1.529 (BA.1), strain)

Binder | binding result
B1 | binds
B2 | binds
B3 | binds
B4 | binds
B5 | binds
B6 | binds
B7 | binds
B8 | binds
B9 | binds
B10 | binds
B11 | binds
B12 | binds
B13 | binds
B14 | binds
B15 | binds
B16 | binds
B17 | binds
B18 | binds
B19 | binds
B20 | binds
B21 | binds
B22 | binds
B23 | binds
B24 | binds

Source: paper PMC8866119 (Nature, 2021)
